The values below come from the supplement of paper PMC9170038.

In this data set the test system is MS2 coat protein. Kind of data set: apparent KD of MS2 coat protein; higher = weaker reporter binding. The note with it: Eterna round: R107. A digest of the protocol: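 Apparent KD stands for the median, per design, of fits to normalised cluster binding curves. The curves came from titrating on-chip-transcribed RNA switches on Illumina sequencing clusters with SNAP-549-labelled MS2 coat protein, twofold from 0.7 or 1.5 nM to 3 µM. Buffer was 100 mM Tris-HCl pH 7.5, 80 mM KCl, 4 mM MgCl2, without or with constant ligand.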

[1] abbreviates: input ligand: theophylline 20 uM.
[2] abbreviates: input ligand: theophylline 2 mM.
Setting [3] is: input ligand: tryptophan 2.4 mM.

Regarding “UGUAUGUGAUCUGAUACCAGCUUAAUAACAUGAGCAUCAGCCAUGUGGAGCGGAAACGCUAGCCCUUGGCAGCAGAUCGCAUACU [Denovo 11 #StaticStem #AlternativeMS2]”, the “apparent KD of MS2 coat protein” value stood at 101 nM (input ligand: arginine 13.2 mM); 143 nM (input ligand: none); 79 nM under setting [1]; 13.2 nM under setting [2]; 129 nM under setting [3].
The matching figures for “GAACAUAAGGAUAGUAUAAUAACUACAGAAGGAGCGUCAGGAAGGACAGGUAGGUCGCUGGAAGACAUGAGGAUCACCCAUGUUU [#03 Same State - Arginine A]”: 20.6 nM, 21.4 nM, 28.8 nM, 21.1 nM and 17.1 nM.
Consider “UGUAUGUGAUUUGAUACCAGAUCAGCUGGUUAUACAUGAGGAUCACCCAUGUUACUUUGGGUCCCUUGGCAGCAAAUCGCAUACU [SSTheo B #26]”, for which the “apparent KD of MS2 coat protein” value came to 165 nM (input ligand: arginine 13.2 mM), 355 nM under setting [1] and 535 nM under setting [3].
In the case of “GAGCUGAUGUAGGGUGGAUAUCCUUGAGAUACCAGUACAGAAAUGUACCCUUGGCAGCUCUUCCUUACAUGAGGAUCACCCAUGU [Ex Theophylline A 25]”, the “apparent KD of MS2 coat protein” value (input ligand: arginine 13.2 mM) was 18.9 nM, the “apparent KD of MS2 coat protein” value under setting [1] is 23.5 nM and the “apparent KD of MS2 coat protein” value under setting [3] amounted to 20.4 nM.
Turning to “ACACAUGAGGAUCACCCAUGUGCGCUGGAAGGAGCGCAGAAUCAUGCAGGUAGGUCGCCAGUGCCCUCUACUAAAGGGAAAAGAG [Diatsoceri]”, the “apparent KD of MS2 coat protein” value (input ligand: arginine 13.2 mM) is 66.5 nM; the “apparent KD of MS2 coat protein” value (input ligand: none) stood at 72 nM; the “apparent KD of MS2 coat protein” value under setting [1] was 120 nM; the “apparent KD of MS2 coat protein” value under setting [2] is 92.9 nM; the “apparent KD of MS2 coat protein” value under setting [3] was 68.5 nM.
On to “GGGAGAUAGGCGGCCGCCACUGAUUUUCAUAUAUAUAUAACAUGAGGAUCACCCAUGUAGAUAUACAGGACCGGGCCUAUUUUUU [aaaE]”, for which the “apparent KD of MS2 coat protein” value runs as follows: (input ligand: arginine 13.2 mM) 19.1 nM; under setting [1], 22.5 nM; under setting [2], 19.7 nM.
With “UUGACAUGAGGAUCACCCAUGUAAACUGAAGGAGCGUCGAAAAUGACAGGUAGGUCGCAGAAUAAUAAAGGUGAUGGUAAAUAUU [Exclusion Arginine AGF1]”, the “apparent KD of MS2 coat protein” value reads like this: (input ligand: arginine 13.2 mM) 21.4 nM; (input ligand: none) 22.3 nM; under setting [1], 34.5 nM; under setting [2], 29.6 nM; under setting [3], 29.3 nM.
Take “CGAGUAAGAACAAUCGAAUAACGGUUUUCGCGAGGACCGGUACGGCCGCCACUCGUGUGAUAUAACACAUGAGGAUCACCCAUGU [3'end-1]”: the “apparent KD of MS2 coat protein” value runs as follows: (input ligand: arginine 13.2 mM) 25.3 nM; under setting [1], 37.6 nM; under setting [2], 34.9 nM.
For the sequence “AGACAUGAGGAUCACCCAUGUAGUAUGGAUACCAGAUCCAGAUUUAUCCCUUGGCAGCUGUGGUACAGCGUUGGAUCGCUCCUAG [Exclusion - Theophylline A (Freestyle 12)]”, the “apparent KD of MS2 coat protein” value (input ligand: arginine 13.2 mM) was 22.3 nM, the “apparent KD of MS2 coat protein” value under setting [1] turned out to be 34.6 nM and the “apparent KD of MS2 coat protein” value under setting [3] is 27.8 nM.
On to “AACGUGAACGUGGUAUACCCGUGUGCCGAAGGAGCGCCCGAAAGGGCAGGUAGGUCGCGGACGACAUGAGGAUCACCCAUGUUUG”, for which the “apparent KD of MS2 coat protein” value was determined as 42 nM (input ligand: arginine 13.2 mM); 73.5 nM (input ligand: none); 97.2 nM under setting [1]; 87.5 nM under setting [2]; 57.7 nM under setting [3].
Regarding “AACAUGAGGAUCACCCAUGUUCUCGUGUACCGAGGACCGGUACGGCCGCCACUCGGUUCUCGCGAGGAUGGUCAAAGACUAUCCA [Omei Trp A SS B v5]”, the “apparent KD of MS2 coat protein” value runs as follows: (input ligand: arginine 13.2 mM) 22.6 nM; under setting [1], 25.1 nM; under setting [2], 24.7 nM.
As to “CGGCCCUCACACGAGGAUCACCCGUGUGAUACCAGCCUGGAAACAGGCCCUUGGCAGCACAAGGUCAUCAAAGAUGACCAAGCCG [TheoAX 22 #SwitchBubble]”, the “apparent KD of MS2 coat protein” value (input ligand: arginine 13.2 mM) was determined as 9.52 nM; the “apparent KD of MS2 coat protein” value (input ligand: none) is 11.9 nM; the “apparent KD of MS2 coat protein” value under setting [1] worked out at 18 nM; the “apparent KD of MS2 coat protein” value under setting [2] was found to be 31.8 nM; the “apparent KD of MS2 coat protein” value under setting [3] came to 12.6 nM.
In the case of “UUAUAAGCACCUGAUACCAGUAUGAACCCGUACAUGAGGAUCACCCAUGUUAAUUUCUAUUACCCUUGGCAGCAGCCUUUUUCCU [theeternabot_sameState_MS2_Theo_B_2]”, the “apparent KD of MS2 coat protein” value reads like this: (input ligand: arginine 13.2 mM) 18.7 nM; under setting [1], 28.8 nM; under setting [3], 21.7 nM.
For “ACGACGCAUAGUGAUACCAGUAGAACAUGAGGAUCACCCAUGUCUGUGACGCACAAACUCUGCCCUUGGCAGCACUAUGCGUCAG [SSTheo B #7]” the same measures were 12 nM, 15.9 nM and 12.2 nM.
As to “AUAACAUGAGGAUCACCCAUGUUGAGUGAUACCAGACUAUGUAAUGUCCCUUGGCAGCACAAGUAAAGUUAUAAAUAAUGAUAGA [#12 SameState-TheophyllineA]”, the “apparent KD of MS2 coat protein” value is, setting by setting: (input ligand: arginine 13.2 mM) 48.2 nM; under setting [1], 55.1 nM; under setting [3], 47.2 nM.
Regarding “UGAUGGAACGGAAGGAGCGUGUAAGAACAAGAACAUGAGGAUCACCCAUGUAUUAAUUUAACACAGGUAGGUCGCCGAGAUAUUG [11.E]”, the “apparent KD of MS2 coat protein” value reads like this: (input ligand: arginine 13.2 mM) 19.8 nM; (input ligand: none) 14.5 nM; under setting [1], 23.1 nM; under setting [2], 17.3 nM; under setting [3], 13.5 nM.
Take “UCACAUGAGGAUCACCCAUGUACAGGCGAUACCAGCCGUACAUUGGGCCCUUGGCAGCGCACCGAGACCUUUUAAAGCACUUCGG [Er]”: the “apparent KD of MS2 coat protein” value is, setting by setting: (input ligand: arginine 13.2 mM) 33.5 nM; under setting [1], 103 nM; under setting [3], 34.7 nM.
